Here are results for five molecules from paper PMC12000397, “Mechanism of client loading from BiP to Grp94 and its disruption by select inhibitors” (Nature Communications, 2025).

To fix the notation:
B5: Mouse BiP (residues 27-655) (natural protein)
chain: not shown
notes: BiP, mouse, residues 27-655; also called full-length BiP; source: E. coli BL21, purified (Ni-NTA, anion exchange, SEC); not shown: His6, N-terminal, cleaved

Values joined by “and” are separate entries in the source; they are usually repeats but may differ in a detail not shown here. Equal values may be shown once. Ends that are not written are not given here.

For data set [1], the target named is B5. Kind of data set: fluorescence polarisation; 50 nM FITC-labeled client construct, BiP alone or Grp94 alone titrated; ADP conditions; 60 mM HEPES pH 7.0, 50 mM KCl, 5 mM MgCl2, 5% or 0% DMSO, 1 mM DTT, 0.75 mg/mL BSA, 1 mM ADP, 30 °C; single-site fit. Particulars: both partners purified. Background: Polarisation of emitted light reports the rotation of a fluorescent probe.

The next data set has as its target T1, BiP/Grp94 (mouse, UniProt P20029 27-655; P08113 72-765, Δ287-328).
T1 construct: BiP, mouse, residues 27-655; Grp94, mouse, residues 72-765 with the charged linker removed (Δ287-328); also called BiP and Grp94; source: E. coli BL21, each purified (Ni-NTA, anion exchange, SEC), mixed; not shown: His6, N-terminal, cleaved; copies: + 2
Kind of data set: fluorescence polarisation; FITC-labeled client preincubated with BiP, Grp94 then added; BiP and Grp94 varied together (Fig. 6A, B; apparent) or 5 μM BiP and 5 μM Grp94 monomer (ΔP, Fig. 6C), with and without inhibitors; ADP conditions; 60 mM HEPES pH 7.0, 50 mM KCl, 5 mM MgCl2, 1 mM DTT, 0.75 mg/mL BSA, 1 mM ADP, 30 °C. The note with it: both partners purified.

Another data set deals with T2, FITC-labeled BiP NBD (mouse, FITC on Cys27 (D27C)).
T2 construct: also called FITC-NBD; D27C BiP; source: E. coli BL21, purified
Kind of data set: fluorescence polarisation; 50 nM FITC-labeled BiP NBD constructs, Grp94 or Grp94 MD titrated; 25 mM Tris pH 7.5, 50 mM KCl, 1 mM ADP (hexokinase-treated), 1 mM DTT; single-site binding fit. Particulars: both partners purified.

Data set [2] has as its target T3, FITC-labeled BiP_(D187A) NBD (mouse, FITC on Cys27 (D27C)).
T3 construct: interface II mutant; also called FITC-D187A NBD; source: E. coli BL21, purified
The data set is described as above. Particulars: both partners purified.

Data set [3] deals with the molecule itself. The data set is described as follows: cross-linking; 1 μM M86C Grp94 dimer, 50 mM KCl, 50 mM Tris pH 8, 4% DMSO, with or without 5 μM BiP NBD and 50 μM inhibitor; disulfide formed with 10 mM oxidized glutathione, 25 °C, 2 h; SDS-PAGE.
The target in data set [4] is T4, Grp94 (residues 72-765) with the charged-linker removed (Δ287-328) (mouse, UniProt P08113 72-765, Δ287-328).
T4 construct: Grp94, mouse, residues 72-765 with the charged linker removed (Δ287-328); also called wild-type Grp94; source: E. coli BL21, purified (Ni-NTA, anion exchange, SEC); not shown: His6, N-terminal, cleaved
The data set is described as follows: fluorescence polarisation; FITC-labeled client preincubated with BiP, Grp94 then added; BiP and Grp94 varied together (Fig. 6A, B; apparent) or 5 μM BiP and 5 μM Grp94 monomer (ΔP, Fig. 6C), with and without inhibitors; ADP conditions; 60 mM HEPES pH 7.0, 50 mM KCl, 5 mM MgCl2, 1 mM DTT, 0.75 mg/mL BSA, 1 mM ADP, 30 °C. The note with it: both partners purified.

T1 sequence (P20029 27-655, stated change not applied, one chain of several): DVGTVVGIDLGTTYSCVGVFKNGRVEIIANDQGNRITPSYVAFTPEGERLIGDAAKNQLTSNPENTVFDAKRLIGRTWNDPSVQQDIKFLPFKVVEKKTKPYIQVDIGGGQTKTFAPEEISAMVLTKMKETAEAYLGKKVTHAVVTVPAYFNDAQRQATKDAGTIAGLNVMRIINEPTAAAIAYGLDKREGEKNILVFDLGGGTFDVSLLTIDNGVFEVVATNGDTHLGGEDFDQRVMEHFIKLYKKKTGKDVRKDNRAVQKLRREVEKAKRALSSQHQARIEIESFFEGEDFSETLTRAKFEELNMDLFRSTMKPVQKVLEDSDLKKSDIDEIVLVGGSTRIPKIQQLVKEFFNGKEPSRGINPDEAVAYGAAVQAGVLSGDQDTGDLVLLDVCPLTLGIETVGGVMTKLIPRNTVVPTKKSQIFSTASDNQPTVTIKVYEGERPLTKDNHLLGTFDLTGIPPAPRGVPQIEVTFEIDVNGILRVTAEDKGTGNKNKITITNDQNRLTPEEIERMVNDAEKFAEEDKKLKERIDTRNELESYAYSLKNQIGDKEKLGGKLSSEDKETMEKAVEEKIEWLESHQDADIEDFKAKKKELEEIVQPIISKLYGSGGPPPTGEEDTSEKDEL

B1: FITC-labeled proIGF2_(25-120) (domain or fragment)
chain: AYGPGETLSGGELVDTLQFVSSDRGFYFSRPSSRANRRSRGIVEECSFRSSDLALLETYSATPAKSERDVSTSQAVLPDDFPRYPVGKFFQYDTWR
modifications: FITC (maleimide) on Cys70
B1: the Kd in data set [1] is 1.5 µM and 2.5 µM; in the data set with BiP/Grp94, 1.1 ± 0.2 µM.

B2: Grp94 MD (domain or fragment)
chain: NDIKPIWQRPSKEVEEDEYKAFYKSFSKESDDPMAYIHFTAEGEVTFKSILFVPTSAPRGLFDEYGSKKSDYIKLYVRRVFITDDFHDMMPKYLNFVKGVVDSDDLPLNVSRETLQQHKLLKVIRKKLVRKTLDMIKKIADEKYNDTFWKEFGTNIKLGVIEDHSNRTRLAKLLRFQSSHHSTDITSLDQYVERMKEKQDKIYFMAGSSRKEAESSPFVERLLKKGYEVIYLTEPVDEYCIQALPEFDGKRFQNVAKE
B2: the values for the Kd (in the data set with FITC-labeled BiP NBD; in data set [2]) were 5.8 ± 1.2 µM and 6.5 ± 0.7 µM, respectively.

B3: proIGF2_(92-120) fragment (Ext. Site 1), FITC-labeled (domain or fragment, UniProt P01344 92-120, looked up)
chain: RDVC(FITC maleimide)TPPTVLPDNFPRYPVGKFFQYDTWK
notes: proIGF2 residues 92-120, cysteine mutation at Ser95; also called extended site 1; source: purified from inclusion bodies (8 M urea; ion exchange and/or Ni-NTA, denaturing)
B3 showed a Kd in data set [1] of 1.9 ± 0.5 µM.

B4: M86C Grp94 (natural protein, mouse, UniProt P08113 72-765, looked up)
chain: KSEKFAFQAEVNRMCKLIINSLYKNKEIFLRELISNASDALDKIRLISLTDENALAGNEELTVKIKCDKEKNLLHVTDTGVGMTREELVKNLGTIAKSGTSEFLNKMTEAQEDGQSTSELIGQFGVGFYSAFLVADKVIVTSKHNNDTQHIWESDSNEFSVIADPRGNTLGRGTTITLVLKEEASDYLELDTIKNLVRKYSQFINFPIYVWSSKTTVWDWELMNDIKPIWQRPSKEVEEDEYKAFYKSFSKESDDPMAYIHFTAEGEVTFKSILFVPTSAPRGLFDEYGSKKSDYIKLYVRRVFITDDFHDMMPKYLNFVKGVVDSDDLPLNVSRETLQQHKLLKVIRKKLVRKTLDMIKKIADEKYNDTFWKEFGTNIKLGVIEDHSNRTRLAKLLRFQSSHHSTDITSLDQYVERMKEKQDKIYFMAGSSRKEAESSPFVERLLKKGYEVIYLTEPVDEYCIQALPEFDGKRFQNVAKEGVKFDESEKTKESREATEKEFEPLLNWMKDKALKDKIEKAVVSQRLTESPCALVASQYGWSGNMERIMKAQAYQTGKDISTNYYASQKKTFEINPRHPLIRDMLRRIKEDEDDKTVMDLAVVLFETATLRSGYLLPDTKAYGDRIERMLRLSLNIDPEAQVEEEPEEEPED
notes: Grp94, mouse, residues 72-765 with the charged linker removed (Δ287-328), M86C for a designed disulfide bond; also called Grp94_(M86C); source: E. coli BL21, purified (Ni-NTA, anion exchange, SEC); not shown: His6, N-terminal, cleaved
In the case of B4, the binding result in data set [3] is “binds”.
In the case of B5, the binding result in data set [4] is reported as “binds”.
